Measured values taken from patent US20230272114A1 (published 2023).

Legend:
[1] = biological target: T1, recombinant human FcγRIIb protein (R&D Systems) (human, UniProt P31994 46-217); assay: Biacore SPR
T1 chain: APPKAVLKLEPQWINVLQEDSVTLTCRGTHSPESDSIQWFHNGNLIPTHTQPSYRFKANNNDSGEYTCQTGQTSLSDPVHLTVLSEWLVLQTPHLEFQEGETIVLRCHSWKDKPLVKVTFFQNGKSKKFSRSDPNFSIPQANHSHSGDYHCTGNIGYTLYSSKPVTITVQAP

[2] = biological target: T2, Fc region of IgE (UniProt P01854 105-428); assay: Biacore
T2 chain: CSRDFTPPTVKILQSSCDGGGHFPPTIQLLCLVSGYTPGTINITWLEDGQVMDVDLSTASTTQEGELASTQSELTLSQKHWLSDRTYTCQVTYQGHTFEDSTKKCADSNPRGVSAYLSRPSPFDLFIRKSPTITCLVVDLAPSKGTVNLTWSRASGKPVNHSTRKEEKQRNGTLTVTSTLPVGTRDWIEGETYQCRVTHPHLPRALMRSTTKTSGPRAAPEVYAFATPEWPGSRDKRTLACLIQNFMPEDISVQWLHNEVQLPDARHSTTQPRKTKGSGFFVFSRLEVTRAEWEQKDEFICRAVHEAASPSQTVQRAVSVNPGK

[3] = biological target: S267E; assay: Biacore SPR

| Binder | Kd [1] [nM] | Kd [2] [nM] | Kd [3] [nM] |
| --- | --- | --- | --- |
| MaE11_H1L1_IgG1_S267E/L328F (antibody) chain 1: not shown chain 2: DIQLTQSPSSLSASVGDRVTITCRASQSVDYDGDSYMNWYQQKPGQPPKLLIYAASYLGSEIPARFSGSGSGTDFTLTISSLQPEDFATYYCQQSHEDPYTFGAGTKLEIKRTVAAPSVFIFPPSDEQLKSGTASVVCLLNNFYPREAKVQWKVDNALQSGNSQESVTEQDSKDSTYSLSSTLTLSKADYEKHKVYACEVTHQGLSSPVTKSFNRGEC | 5.6 | 0.063 |  |
| MaE11_H1L1_IgG1_WT (antibody) chain 1: not shown chain 2: DIQLTQSPSSLSASVGDRVTITCRASQSVDYDGDSYMNWYQQKPGQPPKLLIYAASYLGSEIPARFSGSGSGTDFTLTISSLQPEDFATYYCQQSHEDPYTFGAGTKLEIKRTVAAPSVFIFPPSDEQLKSGTASVVCLLNNFYPREAKVQWKVDNALQSGNSQESVTEQDSKDSTYSLSSTLTLSKADYEKHKVYACEVTHQGLSSPVTKSFNRGEC | 2000 | 0.061 |  |
| MaE11_H1L1_IgG1_G236R/L328R (antibody) chain 1: not shown chain 2: DIQLTQSPSSLSASVGDRVTITCRASQSVDYDGDSYMNWYQQKPGQPPKLLIYAASYLGSEIPARFSGSGSGTDFTLTISSLQPEDFATYYCQQSHEDPYTFGAGTKLEIKRTVAAPSVFIFPPSDEQLKSGTASVVCLLNNFYPREAKVQWKVDNALQSGNSQESVTEQDSKDSTYSLSSTLTLSKADYEKHKVYACEVTHQGLSSPVTKSFNRGEC |  | 0.064 |  |
| FcγRI (receptor) QVDTTKAVITLQPPWVSVFQEETVTLHCEVLHLPGSSSTQWFLNGTATQTSTPSYRITSASVNDSGEYRCQRGLSGRSDPIQLEIHRGWLLLQVSSRVFTEGEPLALRCHAWKDKLVYNVLYYRNGKAFKFFHWNSNLTILKTNISHNGTYHCSGMGKHRYTSAGISVTVKELFPAPVLNASVTSPLLEGNLVTLSCETKLLLQRPGLQLYFSFYMGSKTLRGRNTSSEYQILTARREDSGLYWCEAATEDGNVLKRSPELELQVLGLQLPTP |  |  | 0.26 |
| FcγRIIb (receptor) APPKAVLKLEPQWINVLQEDSVTLTCRGTHSPESDSIQWFHNGNLIPTHTQPSYRFKANNNDSGEYTCQTGQTSLSDPVHLTVLSEWLVLQTPHLEFQEGETIVLRCHSWKDKPLVKVTFFQNGKSKKFSRSDPNFSIPQANHSHSGDYHCTGNIGYTLYSSKPVTITVQAP |  |  | 60 |
| H131 FcγRIIa (receptor) QAAAPPKAVLKLEPPWINVLQEDSVTLTCQGARSPESDSIQWFHNGNLIPTHTQPSYRFKANNNDSGEYTCQTGQTSLSDPVHLTVLSEWLVLQTPHLEFQEGETIMLRCHSWKDKPLVKVTFFQNGKSQKFSHLDPTFSIPQANHSHSGDYHCTGNIGYTLFSSKPVTITVQVPSMGSSSPMGHHHHHH |  |  | 960 |
